Data: patent publication US7524503B2, “Human cytomegalovirus (HCMV) cytotoxic T cell epitopes, polyepitopes compositions comprising same and diagnostic and prophylactic and therapeutic uses therefor” (priority 2001, dated 2009)

Tests used:
HLA A2 = biological target: T1, HLA A2 (Homo sapiens, UniProt P04439, D140Y/D185E/D98H/E176V/E277Q/G131W/G231S/I119V/I121R/I166T/I218V/L300P/L318F/N151K/N90K/P208A/P217A/Q86G/Q94H/R138H/R169H/T345S); assay type: cell-based; conditions: HLA A2 on T2 cells; relative increase in HLA expression vs no peptide at 26° C.
T1 construct: endogenous in cells; host or cells: T2 cells

[1] = test system: PBMC from healthy HCMV seropositive donors; experiment: IFN-γ ELISPOT assay; assay type: cell-based, human; conditions: for ELISPOT Responses (SFC/10^6 PBMC): peptide 10 μg/ml
Experimental: ELISPOT assay was used to assess whether stimulation of PBMC from a large panel of seropositive donors with HCMV peptides could induce IFN-γ expression in T cells. Briefly, a 96-well nitrocellulose plate (Multiscreen, Millipore) was coated overnight at 4° C. with mouse monoclonal antibody anti-IFN-γ IgG1 (10 μg/ml; Mabtech Nacka, Sweden). The plate was then washed six times in Phosphate Buffered Saline (PBS) and blocked for 1 hour at 37° C. with PBS supplemented with 5% FCS. The blocking solution was removed and PBMC from healthy HCMV seropositive donors were added at a concentration of 2.5×10^5 cells per well in growth medium. These cells were incubated for 18 h at 37° C. in a 5% CO2 atmosphere in the presence of synthetic peptides from HCMV antigens (10 μg/ml). After incubation, the plate was washed three times with PBS supplemented with 0.05% Tween, followed by three washes with PBS alone. Biotinylated anti-IFN-γ (Mabtech, Nacka Sweden) detection antibody was added to each well at a final concentration of 1 μg/ml in PBS. The plates were incubated at room temperature in the dark for 4 h and then washed, as described above. Streptavidin-Alkaline phosphatase (Sigma) was added to each well at a final concentration of 1 μg/ml in PBS and incubated at room temperature in the dark for 2 h. After a final wash with PBS, the substrate, 5-bromo-4-chloro-3-indolyl phosphate and nitro blue tetrazolium, was added to each well and the plates incubated for 30 min at RT. Cells that produced IFN-γ in response to the presence of peptide were detected as purple spots on the nitrocellulose membrane of each well. The spots were counted automatically using a closed-circuit camera (CCD) and ImagePro image analysis software or automated ELISPOT reader (AID, Germany). The T cell precursor frequency for each peptide was based on the total number of PBMC in the well and the number of peptide-specific spots per well, over an average of 3 wells. The number of peptide-specific spots was also calculated by subtracting the negative control values, which consisted of PBMC without peptide (an average of 3 wells), from the test wells.
To determine whether memory CTL responses against the predictive HCMV potential epitopes could be detected in healthy seropositive virus carriers, we used the ELISPOT assay, which allows rapid identification of CTL epitopes without prolonged in vitro culture.
We tested epitopes that were restricted for HLA A1, A3, A24, A26, B7, B8, B27, B35 and B44 in ELISPOT assays, to determine whether memory T cell responses could be detected in healthy HLA-matched virus carriers. PBMC from a cohort of healthy virus carriers (Table 2) were stimulated with individual peptides and the cells that produced IFN-γ were detected. CTL epitopes that were restricted through either HLA A1, A3, A24, A26, B7, B8 or B27, were identified.
Thus, a total of 450 peptides were produced. ELISPOT assays were used to determine whether ex vivo memory T cell responses could be detected in a cohort of 14 healthy virus carriers (Table 2). PBMC were stimulated with individual peptides and the cells that produced IFN-γ were detected.

ALVNAVNKL (human cytomegalovirus pp150 CTL epitope peptide)
MSE (MHC stabilization efficiency) (HLA A2): ++ (++ = 100-199%) | ELISPOT Responses (SFC/10^6 PBMC) ([1]; donor ten): WS(60) SFC/10^6 PBMC

ALVNFLRHL (human cytomegalovirus pp150 CTL epitope peptide)
MSE (MHC stabilization efficiency) (HLA A2): ++ (++ = 100-199%) | ELISPOT Responses (SFC/10^6 PBMC) ([1]; donor ten): WS(57) SFC/10^6 PBMC

CLQNALDIL (human cytomegalovirus IE1 CTL epitope peptide)
MSE (MHC stabilization efficiency) (HLA A2): ++ (++ = 100-199%) | ELISPOT Responses (SFC/10^6 PBMC) ([1]; donor delta): SE(490) SFC/10^6 PBMC

FLMEHTMPV (human cytomegalovirus IE2 CTL epitope peptide)
MSE (MHC stabilization efficiency) (HLA A2): ++ (++ = 100-199%) | ELISPOT Responses (SFC/10^6 PBMC) ([1]; donor ten): WS(137) SFC/10^6 PBMC

ILARNLVPM
MSE (MHC stabilization efficiency) (HLA A2): ++ (++ = 100-199%) | ELISPOT Responses (SFC/10^6 PBMC) ([1]; donor delta): SE(170) SFC/10^6 PBMC

KMSVRETLV (human cytomegalovirus pp150 CTL epitope peptide)
MSE (MHC stabilization efficiency) (HLA A2): ++ (++ = 100-199%) | ELISPOT Responses (SFC/10^6 PBMC) ([1]; donor delta): SE(69) SFC/10^6 PBMC

LIEDFDIYV (human cytomegalovirus pp150 CTL epitope peptide)
MSE (MHC stabilization efficiency) (HLA A2): ++ (++ = 100-199%) | ELISPOT Responses (SFC/10^6 PBMC) ([1]; donor ten): WS(88) SFC/10^6 PBMC

LIFGHLPRV (human cytomegalovirus gH CTL epitope peptide)
MSE (MHC stabilization efficiency) (HLA A2): ++ (++ = 100-199%) | ELISPOT Responses (SFC/10^6 PBMC) ([1]; donor delta): SE(84) SFC/10^6 PBMC

LLFRTLLVYL (human cytomegalovirus US3 CTL epitope peptide)
MSE (MHC stabilization efficiency) (HLA A2): +++ (+++ = 200-300%) | ELISPOT Responses (SFC/10^6 PBMC) ([1]; donor seven): 76 SFC/10^6 PBMC | ELISPOT Responses (SFC/10^6 PBMC) ([1]; donor ten): 77 SFC/10^6 PBMC

LLIDPTSGL (human cytomegalovirus pp28 CTL epitope peptide)
MSE (MHC stabilization efficiency) (HLA A2): + (+ = 51-99%) | ELISPOT Responses (SFC/10^6 PBMC) ([1]; donor beta): 77 SFC/10^6 PBMC | ELISPOT Responses (SFC/10^6 PBMC) ([1]; donor seven): 270 SFC/10^6 PBMC

LLNCAVTKL (human cytomegalovirus pp50 CTL epitope peptide)
MSE (MHC stabilization efficiency) (HLA A2): ++ (++ = 100-199%) | ELISPOT Responses (SFC/10^6 PBMC) ([1]; donor delta): SE(59) SFC/10^6 PBMC

LLVLFIVYV (human cytomegalovirus US2 CTL epitope peptide)
MSE (MHC stabilization efficiency) (HLA A2): − (− = 0-50%) | ELISPOT Responses (SFC/10^6 PBMC) ([1]; donor ten): WS(92) SFC/10^6 PBMC

LMLLKNGTV (human cytomegalovirus gH CTL epitope peptide)
MSE (MHC stabilization efficiency) (HLA A2): − (− = 0-50%) | ELISPOT Responses (SFC/10^6 PBMC) ([1]; donor seventeen): CJ(80) SFC/10^6 PBMC

LMNGQQIFL
MSE (MHC stabilization efficiency) (HLA A2): ++ (++ = 100-199%) | ELISPOT Responses (SFC/10^6 PBMC) ([1]; donor fifteen): 217 SFC/10^6 PBMC | ELISPOT Responses (SFC/10^6 PBMC) ([1]; donor ten): 751 SFC/10^6 PBMC

LMQKFPKQV (human cytomegalovirus IE2 CTL epitope peptide)
MSE (MHC stabilization efficiency) (HLA A2): + (+ = 51-99%)

MLNIPSINV [reference compound]
MSE (MHC stabilization efficiency) (HLA A2): ++ (++ = 100-199%) | ELISPOT Responses (SFC/10^6 PBMC) ([1]; donor one): 178 SFC/10^6 PBMC | ELISPOT Responses (SFC/10^6 PBMC) ([1]; donor seven): 65 SFC/10^6 PBMC

NILQKIEKI (human cytomegalovirus pp150 CTL epitope peptide)
MSE (MHC stabilization efficiency) (HLA A2): + (+ = 51-99%)

NLALSTPFL (human cytomegalovirus IE2 CTL epitope peptide)
MSE (MHC stabilization efficiency) (HLA A2): ++ (++ = 100-199%)

NLFPYLVSA (human cytomegalovirus gB CTL epitope peptide)
MSE (MHC stabilization efficiency) (HLA A2): ++ (++ = 100-199%)

PLIPTTAVI (human cytomegalovirus pp150 CTL epitope peptide)
MSE (MHC stabilization efficiency) (HLA A2): − (− = 0-50%)

PLREYLADL (human cytomegalovirus pp28 CTL epitope peptide)
MSE (MHC stabilization efficiency) (HLA A2): − (− = 0-50%)

QLLIPKSFTL (human cytomegalovirus pp71 CTL epitope peptide)
MSE (MHC stabilization efficiency) (HLA A2): − (− = 0-50%)

QLRSVIRAL (human cytomegalovirus pp50 CTL epitope peptide)
MSE (MHC stabilization efficiency) (HLA A2): − (− = 0-50%)

QMLLALARL (human cytomegalovirus gB CTL epitope peptide)
MSE (MHC stabilization efficiency) (HLA A2): + (+ = 51-99%)

QMWQARLTV
MSE (MHC stabilization efficiency) (HLA A2): + (+ = 51-99%)

RIEENLEGV (human cytomegalovirus pp150 CTL epitope peptide)
MSE (MHC stabilization efficiency) (HLA A2): + (+ = 51-99%)

RIFAELEGV [reference compound]
MSE (MHC stabilization efficiency) (HLA A2): ++ (++ = 100-199%) | donors recognizing the epitope in ELISPOT ([1]; cohort of eight HLA A2-positive healthy seropositive donors): 5 of the 8 | ELISPOT Responses (SFC/10^6 PBMC) ([1]; donor fifteen): CP(275) SFC/10^6 PBMC | ELISPOT Responses (SFC/10^6 PBMC) ([1]; donor six): 170 SFC/10^6 PBMC | ELISPOT Responses (SFC/10^6 PBMC) ([1]; donor ten): 236 SFC/10^6 PBMC

RIWCLVVCV (human cytomegalovirus gB CTL epitope peptide)
MSE (MHC stabilization efficiency) (HLA A2): − (− = 0-50%) | ELISPOT Responses (SFC/10^6 PBMC) ([1]; donor fifteen): 105 SFC/10^6 PBMC | ELISPOT Responses (SFC/10^6 PBMC) ([1]; donor one): 108 SFC/10^6 PBMC

RLLQTGIHV [reference compound]
MSE (MHC stabilization efficiency) (HLA A2): ++ (++ = 100-199%) | ELISPOT Responses (SFC/10^6 PBMC) ([1]; donor thirteen): BS(57) SFC/10^6 PBMC

SAIIGIYLL (human cytomegalovirus gH CTL epitope peptide)
MSE (MHC stabilization efficiency) (HLA A2): − (− = 0-50%)

SLLSEFCRV (human cytomegalovirus IE1 CTL epitope peptide)
MSE (MHC stabilization efficiency) (HLA A2): +++ (+++ = 200-300%) | ELISPOT Responses (SFC/10^6 PBMC) ([1]; donor ten): WS(471) SFC/10^6 PBMC

SLVRLVYIL (human cytomegalovirus gH CTL epitope peptide)
MSE (MHC stabilization efficiency) (HLA A2): + (+ = 51-99%)

TLLVLFIVYV (human cytomegalovirus US2 CTL epitope peptide)
MSE (MHC stabilization efficiency) (HLA A2): − (− = 0-50%) | ELISPOT Responses (SFC/10^6 PBMC) ([1]; donor delta): SE(46) SFC/10^6 PBMC

TLLVYLFSL (human cytomegalovirus US3 CTL epitope peptide)
MSE (MHC stabilization efficiency) (HLA A2): ++ (++ = 100-199%)

TLTEDFFVV (human cytomegalovirus gH CTL epitope peptide)
MSE (MHC stabilization efficiency) (HLA A2): ++ (++ = 100-199%)

TLVIPSWHV (human cytomegalovirus pp71 CTL epitope peptide)
MSE (MHC stabilization efficiency) (HLA A2): ++ (++ = 100-199%)

TMWCLTLFV (human cytomegalovirus UL18 CTL epitope peptide)
MSE (MHC stabilization efficiency) (HLA A2): ++ (++ = 100-199%)

TMYGGISLL (human cytomegalovirus IE1 CTL epitope peptide)
MSE (MHC stabilization efficiency) (HLA A2): ++ (++ = 100-199%)

VIGDQYVKV [reference compound]
MSE (MHC stabilization efficiency) (HLA A2): ++ (++ = 100-199%)

YILEETSVM (human cytomegalovirus IE1 CTL epitope peptide) [reference compound]
MSE (MHC stabilization efficiency) (HLA A2): ++ (++ = 100-199%) | ELISPOT Responses (SFC/10^6 PBMC) ([1]; donor seven): SB(764) SFC/10^6 PBMC

YINRALAQI (human cytomegalovirus gB CTL epitope peptide)
MSE (MHC stabilization efficiency) (HLA A2): ++ (++ = 100-199%)

YLFSLVVLV (human cytomegalovirus US3 CTL epitope peptide)
MSE (MHC stabilization efficiency) (HLA A2): + (+ = 51-99%) | ELISPOT Responses (SFC/10^6 PBMC) ([1]; donor ten): WS(73) SFC/10^6 PBMC

YLLYRMLKT (human cytomegalovirus gH CTL epitope peptide)
MSE (MHC stabilization efficiency) (HLA A2): − (− = 0-50%)

YLMDELRYV (human cytomegalovirus gH CTL epitope peptide)
MSE (MHC stabilization efficiency) (HLA A2): ++ (++ = 100-199%)

YLTVFTVYL (human cytomegalovirus gH CTL epitope peptide)
MSE (MHC stabilization efficiency) (HLA A2): ++ (++ = 100-199%)
